Experiments:
[1] = molecular target: H2AK119ub1-modified nucleosome core particle (NCP) (Xenopus | not stated) (UniProt P0CG47); assay: BLI; biotin-labeled nucleosomes immobilised on streptavidin (SA) XT biosensors (Gator), protein in solution; 30 °C, 1000 rpm; 20 mM Tris-HCl pH 7.5, 50 mM NaCl, 1 mM DTT, 0.01% Tween-20; 3 min association, 6 min dissociation
[2] = molecular target: H2AK119ub1-modified nucleosome core particle (NCP) (Xenopus | not stated) (UniProt P0CG47); assay: BLI; competition: DNMT3A1 UDR loaded to biosensors pre-loaded with H2AK119ub1-modified NCP and various concentrations of tag-free JARID2(1-60)

| Kd [1] [nM] | percent decrease of the DNMT3A1 UDR association response at a JARID2(1-60):DNMT3A1 UDR molar ratio of 32:1 [2] [%] | Substance |
| --- | --- | --- |
| 250 | – | GST-tagged N-terminal segment of JARID2 (residues 1–60) (from UniProt Q92833 1-60) (domain or fragment) |
| – | 40 | tag-free JARID2 N-terminal segment (residues 1–60) (from UniProt Q92833 1-60) (domain or fragment) |

— article PMC11266573
